From publication doi:10.1101/245167 (bioRxiv, 2018) come the findings set out here.

Sequences and labels used below:
B1: Ska3 (as subunit of the wild-type Ska complex) (natural protein)
chain: MDPIRSFCGKLRSLASTLDCETARLQRALDGEESDFEDYPMRILYDLHSEVQTLKDDVNILLDKARLENQEGIDFIKATKVLMEKNSMDIMKIREYFQKYGYSPRVKKNSVHEQEAINSDPELSNCENFQKTDVKDDLSDPPVASSCISEKSPRSPQLSDFGLERYIVSQVLPNPPQAVNNYKEEPVIVTPPTKQSLVKVLKTPKCALKMDDFECVTPKLEHFGISEYTMCLNEDYTMGLKNARNNKSEEAIDTESRLNDNVFATPSPIIQQLEKSDAEYTNSPLVPTFCTPGLKIPSTKNSIALVSTNYPLSKTNSSSNDLEVEDRTSLVLNSDTCFENLTDPSSPTISSYENLLRTPTPPEVTKIPEDILQLLSKYNSNLATPIAIKAVPPSKRFLKHGQNIRDVSNKEN
B2: Ska complex^(Ska1 ΔMTBD) (full length Ska2 and Ska3 with Ska1 residues 1-131), without His-tag (complex)
chain 1: MASSDLEQLCSHVNEKIGNIKKTLSLRNCGQEPTLKTVLNKIGDEIIVINELLNKLELEIQYQEQTNNSLKELCESLEEDYKDIEHLKENVPSHLPQVTVTQSCVKGSDLDPEEPIKVEEPEPVKKPPKEQ
chain 2: MEAEVDKLELMFQKAESDLDYIQYRLEYEIKTNHPDSASEKNPVTLLKELSVIKSRYQTLYARFKPVAVEQKESKSRICATVKKTMNMIQKLQKQTDLELSPLTKEEKTAAEQFKFHMPDL
chain 3: B1 chain
B3: Spc25 (as subunit of the wild-type Ndc80 complex) (natural protein)
chain: MVEDELALFDKSINEFWNKFKSTDTSCQMAGLRDTYKDSIKAFAEKLSVKLKEEERMVEMFLEYQNQISRQNKLIQEKKDNLLKLIAEVKGKKQELEVLTANIQDLKEEYSRKKETISTANKANAERLKRLQKSADLYKDRLGLEIRKIYGEKLQFIFTNIDPKNPESPFMFSLHLNEARDYEVSDSAPHLEGLAEFQENVRKTNNFSAFLANVRKAFTATVYN
B4: Spc24-His (as subunit of the wild-type Ndc80 complex) (natural protein)
chain: MAAFRDIEEVSQGLLSLLGANRAEAQQRRLLGRHEQVVERLLETQDGAEKQLREILTMEKEVAQSLLNAKEQVHQGGVELQQLEAGLQEAGEEDTRLKASLLQLTRELEELKEIEADLERQEKEVDEDTTVTIPSAVYVAQLYHQVSKIEWDYECEPGMVKGIHHGPSVAQPIHLDSTQLSRKFISDYLWSLVDTEW

What all share (experiment): cross-linking
The target in test [1] is T1, Hec1 (as subunit of the wild-type Ndc80 complex) (human, UniProt O14777 1-642).
T1 sequence: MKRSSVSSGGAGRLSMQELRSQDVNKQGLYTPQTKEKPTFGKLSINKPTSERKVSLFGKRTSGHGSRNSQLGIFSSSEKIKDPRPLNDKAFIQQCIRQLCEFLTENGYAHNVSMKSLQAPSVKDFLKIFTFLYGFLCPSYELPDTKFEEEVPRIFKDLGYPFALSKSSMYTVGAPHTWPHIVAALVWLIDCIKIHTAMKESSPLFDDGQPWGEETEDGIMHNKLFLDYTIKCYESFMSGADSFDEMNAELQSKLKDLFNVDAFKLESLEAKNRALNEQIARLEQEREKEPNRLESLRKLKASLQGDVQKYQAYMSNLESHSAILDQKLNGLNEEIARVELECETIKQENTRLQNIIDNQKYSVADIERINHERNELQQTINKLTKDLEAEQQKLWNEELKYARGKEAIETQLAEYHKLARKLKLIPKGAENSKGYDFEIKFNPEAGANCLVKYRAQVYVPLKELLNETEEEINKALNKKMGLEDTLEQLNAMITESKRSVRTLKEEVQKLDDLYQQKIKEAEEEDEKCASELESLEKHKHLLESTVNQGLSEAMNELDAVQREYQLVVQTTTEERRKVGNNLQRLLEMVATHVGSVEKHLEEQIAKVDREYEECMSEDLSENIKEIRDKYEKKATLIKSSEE

The target of test [2] is T2, Nuf2 (as subunit of the wild-type Ndc80 complex) (human, UniProt Q9BZD4 1-464).
T2 sequence: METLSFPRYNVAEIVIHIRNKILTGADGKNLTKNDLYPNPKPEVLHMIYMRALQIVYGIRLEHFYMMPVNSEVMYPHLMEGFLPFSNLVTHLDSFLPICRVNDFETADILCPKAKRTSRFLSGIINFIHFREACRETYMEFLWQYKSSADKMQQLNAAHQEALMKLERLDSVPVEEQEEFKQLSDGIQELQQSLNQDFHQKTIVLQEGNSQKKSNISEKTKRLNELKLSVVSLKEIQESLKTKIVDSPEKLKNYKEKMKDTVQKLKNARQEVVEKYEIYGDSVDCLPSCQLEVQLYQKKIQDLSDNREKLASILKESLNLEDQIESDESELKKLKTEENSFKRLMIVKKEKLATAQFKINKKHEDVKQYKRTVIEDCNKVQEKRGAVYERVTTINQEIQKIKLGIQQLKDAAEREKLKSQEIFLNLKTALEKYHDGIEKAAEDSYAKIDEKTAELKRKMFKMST

Test [3] addresses human Ndc80 complex (Hec1, Nuf2, Spc24-His, Spc25), wild type (human, UniProt O14777;Q9BZD4;Q8NBT2;Q9HBM1).
Test [4] addresses B1.

For B1, the binding result in test [1] and in test [2] was “binds” throughout.

Regarding B2, the binding result in test [3] is recorded as “binds”.

B3: the binding result in test [4] was “binds”.

Regarding B4, the binding result in test [4] is reported as “binds”.
